{"source": "patent US20260097134A1", "about": "“COMPOSITIONS AND METHODS FOR PRECISE EDITING OF HUMAN DYSTROPHIN” (Mammoth Biosciences, Inc., priority 2023, published 2026)", "molecules": {"B1": {"name": "CasPhi.12 L26R: variant of CasPhi.12, SEQ ID NO: 1603; delivered encoded in AAV9-4A vectors PL26297 or PL31718 (protein)", "chain": "MIKPTVSQFLTPGFKLIRNHSRTAGRKLKNEGEEACKKFVRENEIPKDECPNFQGGPAIANIIAKSREFTEWEIYQSSLAIQEVIFTLPKDKLPEPILKEEWRAQWLSEHGLDTVPYKEAAGLNLIIKNAVNTYKGVQVKVDNKNKNNLAKINRKNEIAKLNGEQEISFEEIKAFDDKGYLLQKPSPNKSIYCYQSVSPKPFITSKYHNVNLPEEYIGYYRKSNEPIVSPYQFDRLRIPIGEPGYVPKWQYTFLSKKENKRRKLSKRIKNVSPILGIICIKKDWCVFDMRGLLRTNHWKKYHKPTDSINDLFDYFTGDPVIDTKANVVRFRYKMENGIVNYKPVREKKGKELLENICDQNGSCKLATVDVGQNNPVAIGLFELKKVNGELTKTLISRHPTPIDFCNKITAYRERYDKLESSIKLDAIKQLTSEQKIEVDNYNNNFTPQNTKQIVCSKLNINPNDLPWDKMISGTHFISEKAQVSNKSEIYFTSTDKGKTKDVMKSDYKWFQDYKPKLSKEVRDALSDIEWRLRRESLEFNKLSKSREQDARQLANWISSMCDVIGIENLVKKNNFFGGSGKREPGWDNFYKPKKENRWWINAIHKALTELSQNKGKRVILLPAMRTSITCPKCKYCDSKNRNGEKFNCLKCGIELNADIDVATENLATVAITAQSMPKPTCERSGDAKKPVRARKAKAPEFHDKLAPSYTVVLREAV"}, "B2": {"name": "CasPhi.12 L26R, I471T, S223P, D703G: CasPhi.12 engineered variant, SEQ ID NO: 1607 (protein)", "chain": "B1 chain with S223P, I471T, D703G"}, "B3": {"name": "CasM.265466 D220R: variant of CasM.265466, SEQ ID NO: 1602; delivered encoded in AAV9-4A vectors PL31719, PL31720, PL31721 (protein)", "chain": "MSVLTRKVQLIPVGDKEERDRVYKYLRDGIEAQNRAMNLYMSGLYFAAINEASKEDRKELNQLYSRIATSSKGSAYTTDIEFPTGLASTSTLSMAVRQDFTKSLKDGLMYGRVSLPTYRKDNPLFVDVRFVALRGTKQKYNGLYHEYKSHTEFLDNLYSSDLKVYIKFANDITFQVIFGNPRKSSALRSEFQNIFEEYYKVCQSSIQFSGTKIILNMAMRIPDKEIELDEDVCVGVDLGIAIPAVCALNKNRYSRVSIGSKEDFLRVRTKIRNQRKRLQTNLKSSNGGHGRKKKMKPMDRFRDYEANWVQNYNHYVSRQVVDFAVKNKAKYINLENLEGIRDDVKNEWLLSNWSYYQLQQYITYKAKTYGIEVRKINPYHTSQRCSCCGYEDAGNRPKKEKGQAYFKCLKCGEEMNADFNAARNIAMSTEFQSGKKTKKQKKEQHENK"}}, "key": {"mouse PCSK9 gene": {"test_system": "mouse PCSK9 gene", "assay": "In vivo editing of PCSK9 in muscle tissues via AAV9-4A delivery of CasPhi.12 and CasM.265466 variants, indels by NGS", "parameters": "species or system C57BL/6J mice", "details": "for inducing indels in vivo at the PCSK9 locus across different muscle tissues: summary in words", "source_text": "The purpose of the study was to assess the capability of two effector protein variants, CasPhi.12 L26R (a variant of CasPhi.12) and CasM.265466 D220R (a variant of CasM.265466), to edit nucleic acid sequences within muscle tissues in vivo. The study focused on PCSK9 as an exemplary gene target.\nIn this study, an AAV9-4A vector was employed as the delivery vehicle for introducing the effector protein and gRNA into the specific target tissues. The DNA encoding the effector protein (e.g., SaCas9, CasPhi.12 L26R, or CasM.265466 D220R) and its corresponding promoter (e.g., ck8e or spc5), along with the DNA encoding the gRNA containing the targeting spacer sequence specific to PCSK9 (referred to as PCSK9 in the plasmid) and its u6 promoter were cloned into the AAV9-4A plasmid between the AAV inverted terminal repeats (ITRs), creating AAV9 constructs as follows: • 1) pssAAV-ITR-u6-PCSK9-ck8e-saCas9-bGHpolya-ITR (PL26295) • 2) pssAAV-ITR-u6-PCSK9-ck8e-L26R-wpre-hGHpolya-ITR (PL26297) • 3) pssAAV-ITR-u6-PCSK9-spc5-12-L26R-wpre-hGHpolya-ITR (PL31718) • 4) pssAAV-ITR-u6-PCSK9-ck8e-D220R-wpre-hGHpolya-ITR (PL31719) • 5) pssAAV-ITR-u6-PCSK9-spc5-12-D220R-wpre-hGHpolya-ITR (PL31720) • 6) pscAAV-ITR-u6-PCSK9-Spc5-12-D220R-HSVpolyA-ITR (PL31721)\nThe sequences of the gRNA designed for use in conjunction with SaCas9, CasPhi.12 L26R, or CasM.265466 D220R for targeting the mouse PCSK9 gene are provided in TABLE 14.\n6-week old male C57BL/6J mice were given a single intravenous (IV) bolus through the tail vein using a 1.0 cc syringe with a 27G-⅝″ needle or a single intramuscular (IM) bolus into the gastrocnemius.\n4 weeks after the treatment, the mice were euthanized for assessment. Before collecting the tissues, the mice underwent whole-body perfusion via the left ventricle using 5.0-10.0 mL of PBS to remove any remaining blood from the tissues. Tissue samples weighing 100 mg were then dissected from the liver, heart, gastrocnemius, diaphragm, pectoral, and masseter, respectively, and placed on a plate for subsequent Next-Generation Sequencing (NGS) analysis. For the intramuscular (IM) groups, both the left and right gastrocnemius were weighed and harvested. For all other groups, only the left gastrocnemius was weighed and harvested.\nThe genomic DNA isolated from the muscle tissues was subject to NGS and aligned to a reference DNA sequence for the analysis of insertions or deletions (indels)."}, "DMD": {"test_system": "DMD", "assay": "DMD exon precise editing in HEK293T cells with CasPhi.12 engineered variant, MCP-RT and retRNA, Amplicon Sequencing", "assay_type": "cell-based, human", "details": "MCP-RT SEQ ID NO: 1608, retRNA SEQ ID NO: 1590, guide SEQ ID NO: 1327, 72 hours", "protocol": "HEK293T cells were transfected with plasmids encoding effector protein CasPhi.12 L26R, I471T, S223P, D703G (SEQ ID NO: 1607), a reverse transcriptase (RT) (SEQ ID NO: 1608), a retRNA (SEQ ID NO: 1590), and a guide nucleic acid targeting DMD (SEQ ID NO: 1327). The effector protein was not linked to the RT, but the RT was fused to an MS2 coat protein (MCP) capable of binding an MS2 aptamer loop in the retRNA. Cells were harvested 72 hours later and cell lysates were prepared for Amplicon Sequencing. The percentage of reads containing precise edits were analyzed."}}, "note": "Residue numbers refer to the chain shown, from its start. In names and notes the source's numbering stands.", "data": [{"molecule": "B1", "values": [{"measurement": "indel rate in the PCSK9 gene", "setting": "mouse PCSK9 gene; heart, PL26297 vector, IV administration, 4 weeks after treatment", "result": "about 8%"}, {"measurement": "indel rate in the PCSK9 gene", "setting": "mouse PCSK9 gene; heart, PL31718 vector, IV administration, 4 weeks after treatment", "result": "about 8%"}, {"measurement": "indel rate in the PCSK9 gene", "setting": "mouse PCSK9 gene; masseter, PL26297 vector, IM administration, 4 weeks after treatment", "result": "about 3%"}, {"measurement": "indel rate in the PCSK9 gene", "setting": "mouse PCSK9 gene; right gastrocnemius, PL26297 vector, IM administration, 4 weeks after treatment", "result": "about 5%"}, {"measurement": "inducing indels in vivo at the PCSK9 locus across different muscle tissues", "setting": "mouse PCSK9 gene", "result": "highly efficient"}]}, {"molecule": "B2", "values": [{"measurement": "precise editing, average (percentage of reads containing precise edits)", "setting": "DMD", "result": 1.6, "unit": "%"}, {"measurement": "precise editing, one replicate", "setting": "DMD", "result": 2.1, "unit": "%"}]}, {"molecule": "B3", "values": [{"measurement": "indel rate", "setting": "mouse PCSK9 gene; diaphragm, PL31719 vector, IV administration, 4 weeks after treatment", "result": "about 10%"}, {"measurement": "indel rate", "setting": "mouse PCSK9 gene; heart, PL31719 vector, IV administration, 4 weeks after treatment", "result": "about 20%"}, {"measurement": "indel rate", "setting": "mouse PCSK9 gene; heart, second statement ('Additionally'), vector PL31719, IV administration", "result": "about 11%"}, {"measurement": "fold greater indel rate in the heart compared to SaCas9", "setting": "mouse PCSK9 gene; heart, versus SaCas9 delivered in the PL26295 vector via IV administration", "result": "approximately 2 fold"}, {"measurement": "indel rate", "setting": "mouse PCSK9 gene; left gastrocnemius, PL31719 vector, IV administration, 4 weeks after treatment", "result": "about 15%"}, {"measurement": "indel rate", "setting": "mouse PCSK9 gene; left gastrocnemius, second statement ('Additionally'), vector PL31719, IV administration", "result": "about 10%"}, {"measurement": "indel rate", "setting": "mouse PCSK9 gene; liver, PL31719 vector, IV administration, 4 weeks after treatment", "result": "about 25%"}, {"measurement": "indel rate", "setting": "mouse PCSK9 gene; masseter, PL31719 vector, IV administration, 4 weeks after treatment", "result": "about 5%"}, {"measurement": "indel rate", "setting": "mouse PCSK9 gene; pectoral, PL31719 vector, IV administration, 4 weeks after treatment", "result": "about 13%"}, {"measurement": "indel rate", "setting": "mouse PCSK9 gene; pectoral, second statement ('Additionally'), vector PL31719, IV administration", "result": "about 3%"}, {"measurement": "inducing indels in vivo at the PCSK9 locus across different muscle tissues", "setting": "mouse PCSK9 gene", "result": "highly efficient"}]}]}
